Laboratory results reported in patent US20170137818.
pIC50: −log10 of the molar value.

Biological target: autotaxin (ENPP2/NPP2) (Homo sapiens) (UniProt Q13822)
Experiment: inhibition
[1] = NPP2 assay, no inhibition up to 1.0 uM

ACACTCACAGGCGCTGGNNNNNNNNNNNNNNNNNNNNNNNNNNNNNNCGTGCATGGCCGCTAGT [DNA pool (SEQ 17)]
pIC50 [1]: < 6.00

GTGGTCTAGCTGTACTCNNNNNNNNNNNNNNNNNNNNNNNNNNNNNNNNNNNNNNNNCCACAGTCAACGAGCTA [40N DNA pool (SEQ 1)]
pIC50 (LysoPLD assay, table says 40N only (which pool not stated)): < 6.00 | pIC50 [1]: < 6.00
